Like-named read-outs stand apart in the source and are kept apart here.
B1: #33 inert IgG1: rabbit mAb #33 heavy and light chain variable domains fused to human IgG1 constant domains; SEQ ID NOs: 23 and 24 (protein)
chain 1: ELVMTQTPASVEAAVGGTVTIKCQASETISSRLAWYQQKPGQPPKLLIYQASKLPSGVPSRFKGTGSGTEYTLTISDLECADAATYYCQGCYYGGGSFYDSAFGGGTEVVVKRTVAAPSVFIFPPSDEQLKSGTASVVCLLNNFYPREAKVQWKVDNALQSGNSQESVTEQDSKDSTYSLSSTLTLSKADYEKHKVYACEVTHQGLSSPVTKSFNRGEC
chain 2: QSVEESGGRLVTPGGSLTLTCTVSGFSLSSYDMSWVRQAPGKGLEWIGISWNSGFVDYASWAKGRFSISKTSTTVDLKITSPTTEDTATYFCARLGADDIYYFNLWGPGTLVTISSASTKGPSVFPLAPSSKSTSGGTAALGCLVKDYFPEPVTVSWNSGALTSGVHTFPAVLQSSGLYSLSSVVTVPSSSLGTQTYICNVNHKPSNTKVDKRVEPKSCDKTHTCPPCPAPEAEGAPSVFLFPPKPKDTLMISRTPEVTCVVVDVSHEDPEVKFNWYVDGVEVHNAKTKPREEQYNSTYRVVSVLTVLHQDWLNGKEYKCKVSNKALPSSIEKTISKAKGQPREPQVYTLPPSREEMTKNQVSLTCLVKGFYPSDIAVEWESNGQPENNYKTTPPVLDSDGSFFLYSKLTVDKSRWQQGNVFSCSVMHEALHNHYTQKSLSLSPGK
B2: rabbit mAb #33: rabbit anti-DDR1 monoclonal antibody, light chain SEQ ID NO: 164, heavy chain SEQ ID NO: 165 (antibody)
heavy: QSVEESGGRLVTPGGSLTLTCTVSGFSLSSYDMSWVRQAPGKGLEWIGISWNSGFVDYASWAKGRFSISKTSTTVDLKITSPTTEDTATYFCARLGADDIYYFNLWGPGTLVTISSGQPKAPSVFPLAPCCGDTPSSTVTLGCLVKGYLPEPVTVTWNSGTLTNGVRTFPSVRQSSGLYSLSSVVSVTSSSQPVTCNVAHPATNTKVDKTVAPSTCSKPTCPPPELLGGPSVFIFPPKPKDTLMISRTPEVTCVVVDVSQDDPEVQFTWYINNEQVRTARPPLREQQFNSTIRVVSTLPIAHQDWLRGKEFKCKVHNKALPAPIEKTISKARGQPLEPKVYTMGPPREELSSRSVSLTCMINGFYPSDISVEWEKNGKAEDNYKTTPAVLDSDGSYFLYSKLSVPTSEWQRGDVFTCSVMHEALHNHYTQKSISRSPGK
light: ELVMTQTPASVEAAVGGTVTIKCQASETISSRLAWYQQKPGQPPKLLIYQASKLPSGVPSRFKGTGSGTEYTLTISDLECADAATYYCQGCYYGGGSFYDSAFGGGTEVVVKGDPVAPTVLIFPPAADQVATGTVTIVCVANKYFPDVTVTWEVDGTTQTTGIENSKTPQNSADCTYNLSSTLTLTSTQYNSHKEYTCKVTQGTTSVVQSFNRGDC

Columns and labels:
[1] = Pharmacokinetic profiles of anti-DDR1 mAbs in mice (ELISA of circulating antibody); type: in vivo, mouse; settings: female C57B16JrJ mice, intraperitoneal, 10 mg/kg; for Cmax: circulating free and partially bound antibody
Description: To evaluate the pharmacokinetic profiles of anti-DDR1 mAbs, mAbs were administered intraperitoneally to female C57B16JrJ mice at a dose of 10 mg/kg, serial blood sampling was performed over time (FIG. 4A), and ELISA was used to measure circulating free and partially bound antibody. […] Further, as shown in FIG. 4E and Table S1 below, the maximal circulating (free and partially bound) concentrations of each mAb were higher than the concentration required to bind to target (as shown by the surface plasmon resonance results of mAb binding to mouse DDR1 extracellular domain; see Table S2 below). Moreover, the maximal circulating (free and partially bound) concentrations of mAb #9H1 WT IgG1 were higher than the in vitro concentration required to inhibit Collagen I-induced phosphorylation of DDR1 in T47D cells (see FIG. 1).

DDR1 = target: T1, DDR1 (Homo sapiens, UniProt Q08345); assay: Inhibition of collagen-induced DDR1 phosphorylation in T47D cells (Jess immunoassay); type: cell-based; settings: serum-starved T47D cells, 2 h pretreatment, 50 μg/ml human collagen I for 90 minutes
T1 construct: Cultured T47D breast cancer cells were serum starved for 16 hours; endogenous in cells; host or cells: T47D breast cancer cells
T1 sequence (Q08345 19-913): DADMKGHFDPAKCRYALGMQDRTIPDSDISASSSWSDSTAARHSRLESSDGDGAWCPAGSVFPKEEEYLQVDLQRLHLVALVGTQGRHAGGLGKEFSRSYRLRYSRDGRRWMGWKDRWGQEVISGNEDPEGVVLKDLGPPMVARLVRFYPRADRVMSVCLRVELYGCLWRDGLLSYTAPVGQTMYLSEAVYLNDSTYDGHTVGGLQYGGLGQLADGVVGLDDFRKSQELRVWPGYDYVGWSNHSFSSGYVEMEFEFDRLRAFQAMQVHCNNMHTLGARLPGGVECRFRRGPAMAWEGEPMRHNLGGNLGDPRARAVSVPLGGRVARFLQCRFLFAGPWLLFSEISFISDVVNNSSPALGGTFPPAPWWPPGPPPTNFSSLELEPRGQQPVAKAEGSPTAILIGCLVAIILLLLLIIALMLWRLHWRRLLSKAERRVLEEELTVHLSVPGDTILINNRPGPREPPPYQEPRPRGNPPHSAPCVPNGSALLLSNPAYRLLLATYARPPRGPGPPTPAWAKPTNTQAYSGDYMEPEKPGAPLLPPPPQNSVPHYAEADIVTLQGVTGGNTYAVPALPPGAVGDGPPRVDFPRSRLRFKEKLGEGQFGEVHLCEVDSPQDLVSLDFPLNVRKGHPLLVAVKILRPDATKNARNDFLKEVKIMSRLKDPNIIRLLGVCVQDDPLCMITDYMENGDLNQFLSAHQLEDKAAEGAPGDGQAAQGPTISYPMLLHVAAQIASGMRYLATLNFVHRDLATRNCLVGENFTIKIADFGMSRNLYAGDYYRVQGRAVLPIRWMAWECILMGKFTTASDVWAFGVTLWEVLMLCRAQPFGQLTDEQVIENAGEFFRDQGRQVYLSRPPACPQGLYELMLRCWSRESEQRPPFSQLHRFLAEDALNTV
Description: Cells treated with 200 nM of 2.45-IN [2-(4-Bromo-2-oxo-1′-(1H-pyrazolo[4,3-b]pyridine-5-carbonyl)spiro[indoline-3,4′-piperidin]-1-yl)-N-(2,2,2-trifluoroethyl) acetamide] were used as positive control for inhibition of DDR1 phosphorylation. Cell lysate was then analyzed via Jess immunoassay (ProteinSimple).
Serum-starved T47D cells were pretreated for two hours with increasing concentrations of monoclonal antibody or IgG control, followed by stimulation with 50 μg/ml of human collagen I for 90 minutes.

Row | Molecule | exposure over 168 hours (in words) [1] | tmax [1] [h] | Cmax [1] [µg/mL] | Cmax ([1]; read-out: Cmax) [nM] | inhibition of collagen I-induced phosphorylation of DDR1 (in words) (DDR1)
1 | B1 | comparable to expected exposures for IgG1 | 48 | 131.82 | 650 | 
2 | B2 |  |  |  |  | able to inhibit

Reference: patent publication US20250369982A1, “METHODS OF DETECTING DDR1 PHOSPHORYLATION” (IncendiaTherapeutics, Inc., priority 2022, published 2025)
